According to paper PMC11398526 (bioRxiv, 2024):

B1: progesterone receptor isoform A (PR-A), full-length, Strep II tagged (natural protein)
chain: MSRSGCKVGDSSGTAAAHKVLPRGLSPARQLLLPASESPHWSGAPVKPSPQAAAVEVEEEDGSESEESAGPLLKGKPRALGGAAAGGGAAAVPPGAAAGGVALVPKEDSRFSAPRVALVEQDAPMAPGRSPLATTVMDFIHVPILPLNHALLAARTRQLLEDESYDGGAGAASAFAPPRSSPCASSTPVAVGDFPDCAYPPDAEPKDDAYPLYSDFQPPALKIKEEEEGAEASARSPRSYLVAGANPAAFPDFPLGPPPPLPPRATPSRPGEAAVTAAPASASVSSASSSGSTLECILYKAEGAPPQQGPFAPPPCKAPGASGCLLPRDGLPSTSASAAAAGAAPALYPALGLNGLPQLGYQAAVLKEGLPQVYPPYLNYLRPDSEASQSPQYSFESLPQKICLICGDEASGCHYGVLTCGSCKVFFKRAMEGQHNYLCAGRNDCIVDKIRRKNCPACRLRKCCQAGMVLGGRKFKKFNKVRVVRALDAVALPQPVGVPNESQALSQRFTFSPGQDIQLIPPLINLLMSIEPDVIYAGHDNTKPDTSSSLLTSLNQLGERQLLSVVKWSKSLPGFRNLHIDDQITLIQYSWMSLMVFGLGWRSYKHVSGQMLYFAPDLILNEQRMKESSFYSLCLTMWQIPQEFVKLQVSQEEFLCMKVLLLLNTIPLEGLRSQTQFEEMRSSYIRELIKAIGLRQKGVVSSSQRFYQLTKLLDNLHDLVKQLHLYCLNTFIQSRALSVEFPEMMSEVIAAQLPKILAGMVKPLLFHKK
B2: steroid receptor coactivator 3 (SRC3), full-length, Strep II tagged (natural protein)
chain: not shown

What was measured:
[1] = molecular target: T1, histone acetyltransferase p300, full-length, Strep II tagged (human, UniProt Q09472 1-2414); experiment: cross-linking
[2] = molecular target: B2; experiment: HDX-MS
[3] = molecular target: T1, histone acetyltransferase p300, …; experiment: HDX-MS
[4] = molecular target: B1; experiment: SEC-MALS

T1 sequence (Q09472 whole entry): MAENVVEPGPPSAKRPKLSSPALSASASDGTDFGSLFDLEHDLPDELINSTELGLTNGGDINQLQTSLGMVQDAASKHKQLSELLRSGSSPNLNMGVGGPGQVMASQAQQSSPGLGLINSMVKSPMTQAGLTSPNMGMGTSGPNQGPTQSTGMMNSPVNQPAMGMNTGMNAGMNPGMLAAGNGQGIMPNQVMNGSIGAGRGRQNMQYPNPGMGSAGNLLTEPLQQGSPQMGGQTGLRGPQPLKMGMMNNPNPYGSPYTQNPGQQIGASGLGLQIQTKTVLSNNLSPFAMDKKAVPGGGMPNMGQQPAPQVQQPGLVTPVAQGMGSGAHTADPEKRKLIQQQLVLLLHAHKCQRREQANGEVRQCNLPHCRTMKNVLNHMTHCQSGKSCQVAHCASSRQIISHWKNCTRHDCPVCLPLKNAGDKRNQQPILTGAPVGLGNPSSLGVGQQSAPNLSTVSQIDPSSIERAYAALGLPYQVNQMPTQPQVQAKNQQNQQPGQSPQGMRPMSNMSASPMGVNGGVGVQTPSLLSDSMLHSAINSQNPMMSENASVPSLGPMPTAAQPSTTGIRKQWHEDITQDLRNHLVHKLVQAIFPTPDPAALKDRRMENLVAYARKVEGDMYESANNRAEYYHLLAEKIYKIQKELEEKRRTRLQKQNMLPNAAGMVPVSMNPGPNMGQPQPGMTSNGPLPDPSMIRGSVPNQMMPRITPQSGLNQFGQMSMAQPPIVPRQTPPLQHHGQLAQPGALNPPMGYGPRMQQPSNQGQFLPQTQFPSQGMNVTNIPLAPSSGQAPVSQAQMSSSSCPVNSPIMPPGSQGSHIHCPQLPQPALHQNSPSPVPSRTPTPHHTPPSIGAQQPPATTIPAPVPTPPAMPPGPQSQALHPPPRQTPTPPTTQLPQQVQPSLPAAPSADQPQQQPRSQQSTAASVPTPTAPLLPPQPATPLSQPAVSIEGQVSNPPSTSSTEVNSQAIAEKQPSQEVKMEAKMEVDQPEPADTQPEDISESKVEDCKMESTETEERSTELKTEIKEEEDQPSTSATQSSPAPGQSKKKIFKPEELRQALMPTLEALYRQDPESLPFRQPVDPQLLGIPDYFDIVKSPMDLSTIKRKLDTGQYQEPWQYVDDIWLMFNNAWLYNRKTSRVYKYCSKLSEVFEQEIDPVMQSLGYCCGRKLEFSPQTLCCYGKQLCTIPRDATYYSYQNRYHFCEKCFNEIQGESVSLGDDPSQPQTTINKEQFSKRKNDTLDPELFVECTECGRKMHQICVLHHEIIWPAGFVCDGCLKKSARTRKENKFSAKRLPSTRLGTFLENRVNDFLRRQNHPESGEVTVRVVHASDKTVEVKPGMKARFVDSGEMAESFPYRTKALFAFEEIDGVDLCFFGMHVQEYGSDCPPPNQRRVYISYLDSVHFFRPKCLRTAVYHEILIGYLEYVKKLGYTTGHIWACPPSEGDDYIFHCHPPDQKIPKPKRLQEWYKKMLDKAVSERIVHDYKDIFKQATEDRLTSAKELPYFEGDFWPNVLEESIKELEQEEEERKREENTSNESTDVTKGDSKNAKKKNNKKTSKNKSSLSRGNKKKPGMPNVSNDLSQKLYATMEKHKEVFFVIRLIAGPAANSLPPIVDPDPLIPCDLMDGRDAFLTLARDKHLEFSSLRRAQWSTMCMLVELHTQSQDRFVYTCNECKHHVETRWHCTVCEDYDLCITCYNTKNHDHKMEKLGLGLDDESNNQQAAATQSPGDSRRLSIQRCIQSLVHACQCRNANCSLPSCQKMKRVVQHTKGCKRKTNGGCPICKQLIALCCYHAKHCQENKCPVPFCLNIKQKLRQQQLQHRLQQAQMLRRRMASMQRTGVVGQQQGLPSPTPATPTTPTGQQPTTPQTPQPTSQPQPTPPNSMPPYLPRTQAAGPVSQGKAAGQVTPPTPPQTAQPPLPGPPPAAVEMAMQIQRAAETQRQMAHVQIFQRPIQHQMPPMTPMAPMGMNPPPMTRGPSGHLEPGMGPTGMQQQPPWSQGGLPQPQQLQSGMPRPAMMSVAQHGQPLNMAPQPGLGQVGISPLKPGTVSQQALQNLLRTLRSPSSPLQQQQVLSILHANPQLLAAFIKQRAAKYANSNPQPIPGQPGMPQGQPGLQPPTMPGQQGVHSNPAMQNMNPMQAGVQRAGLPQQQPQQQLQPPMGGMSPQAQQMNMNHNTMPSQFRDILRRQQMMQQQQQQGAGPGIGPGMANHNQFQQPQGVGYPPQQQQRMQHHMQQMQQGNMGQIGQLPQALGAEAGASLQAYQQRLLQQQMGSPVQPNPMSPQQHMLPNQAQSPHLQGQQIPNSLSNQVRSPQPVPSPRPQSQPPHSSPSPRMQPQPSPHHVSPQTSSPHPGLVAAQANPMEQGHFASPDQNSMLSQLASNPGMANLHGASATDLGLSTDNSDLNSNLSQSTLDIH

Row | Binder | binding result [1] | binding result [2] | binding result [3] | stoichiometry N [4] [SRC3 per PR-A]
1 | B1 | binds | binds |  | 
2 | progesterone receptor isoform B (PR-B), full-length, Strep II tagged (natural protein) MTELKAKGPRAPHVAGGPPSPEVGSPLLCRPAAGPFPGSQTSDTLPEVSAIPISLDGLLFPRPCQGQDPSDEKTQDQQSLSDVEGAYSRAEATRGAGGSSSSPPEKDSGLLDSVLDTLLAPSGPGQSQPSPPACEVTSSWCLFGPELPEDPPAAPATQRVLSPLMSRSGCKVGDSSGTAAAHKVLPRGLSPARQLLLPASESPHWSGAPVKPSPQAAAVEVEEEDGSESEESAGPLLKGKPRALGGAAAGGGAAAVPPGAAAGGVALVPKEDSRFSAPRVALVEQDAPMAPGRSPLATTVMDFIHVPILPLNHALLAARTRQLLEDESYDGGAGAASAFAPPRSSPCASSTPVAVGDFPDCAYPPDAEPKDDAYPLYSDFQPPALKIKEEEEGAEASARSPRSYLVAGANPAAFPDFPLGPPPPLPPRATPSRPGEAAVTAAPASASVSSASSSGSTLECILYKAEGAPPQQGPFAPPPCKAPGASGCLLPRDGLPSTSASAAAAGAAPALYPALGLNGLPQLGYQAAVLKEGLPQVYPPYLNYLRPDSEASQSPQYSFESLPQKICLICGDEASGCHYGVLTCGSCKVFFKRAMEGQHNYLCAGRNDCIVDKIRRKNCPACRLRKCCQAGMVLGGRKFKKFNKVRVVRALDAVALPQPVGVPNESQALSQRFTFSPGQDIQLIPPLINLLMSIEPDVIYAGHDNTKPDTSSSLLTSLNQLGERQLLSVVKWSKSLPGFRNLHIDDQITLIQYSWMSLMVFGLGWRSYKHVSGQMLYFAPDLILNEQRMKESSFYSLCLTMWQIPQEFVKLQVSQEEFLCMKVLLLLNTIPLEGLRSQTQFEEMRSSYIRELIKAIGLRQKGVVSSSQRFYQLTKLLDNLHDLVKQLHLYCLNTFIQSRALSVEFPEMMSEVIAAQLPKILAGMVKPLLFHKK | binds | binds |  | 
3 | B2 |  |  | binds | 0.5
